# IntAct's records for PubMed 9990021
# B1: X-linked retinitis pigmentosa GTPase regulator (Homo sapiens), Q92834-2 (parent)
# chain: MREPEELMPDSGAVFTFGKSKFAENNPGKFWFKNDVPVHLSCGDEHSAVVTGNNKLYMFGSNNWGQLGLGSKSAISKPTCVKALKPEKVKLAACGRNHTLVSTEGGNVYATGGNNEGQLGLGDTEERNTFHVISFFTSEHKIKQLSAGSNTSAALTEDGRLFMWGDNSEGQIGLKNVSNVCVPQQVTIGKPVSWISCGYYHSAFVTTDGELYVFGEPENGKLGLPNQLLGNHRTPQLVSEIPEKVIQVACGGEHTVVLTENAVYTFGLGQFGQLGLGTFLFETSEPKVIENIRDQTISYISCGENHTALITDIGLMYTFGDGRHGKLGLGLENFTNHFIPTLCSNFLRFIVKLVACGGCHMVVFAAPHRGVAKEIEFDEINDTCLSVATFLPYSSLTSGNVLQRTLSARMRRRERERSPDSFSMRRTLPPIEGTLGLSACFLPNSVFPRCSERNLQESVLSEQDLMQPEEPDYLLDEMTKEAEIDNSSTVESLGETTDILNMTHIMSLNSNEKSLKLSPVQKQKKQQTIGELTQDTALTENDDSDEYEEMSEMKEGKACKQHVSQGIFMTQPATTIEAFSDEEVEIPEEKEGAEDSKGNGIEEQEVEANEENVKVHGGRKEKTEILSDDLTDKAEDHEFSKTEELKLEDVDEEINAENVESKKKTVGDDESVPTGYHSKTEGAERTNDDSSAETIEKKEKANLEERAICEYNENPKGYMLDDADSSSLEILENSETTPSKDMKKTKKIFLFKRVPSINQKIVKNNNEPLPEIKSIGDQIILKSDNKDADQNHMSQNHQNIPPTNTERRSKSCTIL
# Variants of: B1
# Details: with pde6d_mouse Pde6d
row,Variant,effect of a mutation on the interaction
1,H98Q,disrupting interaction
2,F130C,disrupting interaction
3,G215V,disrupting interaction
4,P235S,decreasing interaction

# More lines, now with the values ahead:
row,effect of a mutation on the interaction,Variant
1,disrupting interaction,C250R
2,disrupting interaction,G275S
